Source: US20040077845A1, “Modifier” (priority 2001, published 2004)

Columns and labels:
bovine serum albumin = molecular target: T1, bovine serum albumin (Bos taurus, UniProt P02769); test: galactose content of the protein modified with agarooligosaccharides (hydrolysis, 2-aminopyridine labelling, HPLC); type: biochemical; conditions: reacted with agarooligosaccharides in PBS pH 7.2, 37° C., 24 hours
T1 construct: purchased Sigma A0281
Method: A solution containing the agarooligosaccharides as described in Example 1-(1) at a concentration of 100 mg/ml and a solution containing bovine serum albumin (Sigma, A0281) at a concentration of 11.1 mg/ml in PBS (pH 7.2) were mixed at a ratio of 1:9. The mixture was reacted at 37° C. for 24 hours to obtain a modification product of bovine serum albumin.
In order to confirm that the agarooligosaccharides were attached to the proteins, the modification products of the proteins were dialyzed to remove free agarooligosaccharides, and only high molecular weight fractions were collected by HPLC. HPLC was carried out as follows.
The protein concentrations in the separated fractions were determined by measuring the absorbances at 280 nm, and fractions containing the proteins were collected. As a control, unmodified counterparts for both of the proteins were also separated under the same conditions. Next, the galactose contents in the collected protein fractions were measured. […] The reducing ends of the resulting monosaccharides were fluorescence-labeled with 2-aminopyridine using GlycoTAG and GlycoTAG Reagent kit (both from Takara Shuzo). The sugar compositions were analyzed according to a conventional method by HPLC (Agric. Biol. Chem. 55, 283-284 (1991)) to determine the galactose contents in the respective protein fractions. […]

[1] = solubility of lyophilized modification products in water or PBS; type: physicochemical; conditions: dissolved in water or PBS
Excerpt: The modification products of bovine serum albumin and human immunoglobulin G separated using HPLC as described in Example 2 were adequately dialyzed against water and lyophilized. The lyophilized modification products and lyophilized unmodified counterparts for both of the proteins were similarly dissolved in water or PBS.

T1 sequence (P02769 25-607): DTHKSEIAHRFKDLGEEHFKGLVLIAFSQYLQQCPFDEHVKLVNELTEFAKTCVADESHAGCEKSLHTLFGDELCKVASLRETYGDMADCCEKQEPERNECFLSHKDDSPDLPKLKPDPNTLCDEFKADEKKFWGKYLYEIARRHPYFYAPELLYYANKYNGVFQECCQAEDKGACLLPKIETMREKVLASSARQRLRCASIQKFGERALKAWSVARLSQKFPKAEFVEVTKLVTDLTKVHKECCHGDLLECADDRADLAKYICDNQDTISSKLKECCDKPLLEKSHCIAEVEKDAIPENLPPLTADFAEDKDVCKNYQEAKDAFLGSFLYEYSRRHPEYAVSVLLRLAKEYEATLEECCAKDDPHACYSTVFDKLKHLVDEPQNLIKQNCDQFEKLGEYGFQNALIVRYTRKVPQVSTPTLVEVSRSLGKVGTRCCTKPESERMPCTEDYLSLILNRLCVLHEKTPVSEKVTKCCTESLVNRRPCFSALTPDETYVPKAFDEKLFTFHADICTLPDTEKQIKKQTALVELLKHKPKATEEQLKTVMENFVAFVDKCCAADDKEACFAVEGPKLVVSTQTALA

modification product of bovine serum albumin: bovine serum albumin reacted with the agarooligosaccharides in PBS at 37° C. for 24 hours
molecules of galactose attached to one molecule of the modification product (bovine serum albumin): eight | solubility compared with unmodified counterparts [1]: superior to that of the unmodified counterparts
